Test system: Escherichia coli TOP10
Assay: shrunken log2 fold change of peptide-encoding DNA abundance (4.5 h post-induction vs induction); higher = less antimicrobial activity (less host growth inhibition)
Conditions: time post-induction: 4.5 h; library: site-saturation at positions 5, 18, 19, 20
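Further: peptides expressed intracellularly from a pBAD plasmid library in pooled LB shake-flask culture, induced with 0.3% L-arabinose, DNA abundance read by NGS, three biological replicates, DESeq2 with apeglm shrinkage.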

Row | Sequence | shrunken log2 fold change
1 | RRIRTRPPRLPRPRPRPSWWPRP | 0.125
2 | RRIRARPPRLPRPRPRPMNLPRP | -0.313
3 | RRIRFRPPRLPRPRPRPLVWPRP | 0.0758
4 | RRIRCRPPRLPRPRPRPTRPPRP | 0.938
5 | RRIRARPPRLPRPRPRPDWVPRP | 0.517
6 | RRIRVRPPRLPRPRPRPYMRPRP | 0.162
7 | RRIRKRPPRLPRPRPRPELHPRP | 0.0814
8 | RRIRPRPPRLPRPRPRPHQLPRP | 0.0761
9 | RRIRVRPPRLPRPRPRPHGRPRP | -0.0651
10 | RRIRTRPPRLPRPRPRPVIWPRP | 0.128
11 | RRIRDRPPRLPRPRPRPWLDPRP | 0.0593
12 | RRIRWRPPRLPRPRPRPGMWPRP | 0.729
13 | RRIRQRPPRLPRPRPRPYLRPRP | -0.176
14 | RRIRKRPPRLPRPRPRPVEEPRP | 0.695
15 | RRIRTRPPRLPRPRPRPVFWPRP | 0.386
16 | RRIRMRPPRLPRPRPRPGFFPRP | 0.423
17 | RRIRDRPPRLPRPRPRPMAHPRP | -0.00211
18 | RRIRHRPPRLPRPRPRPEHHPRP | -0.0643
19 | RRIRKRPPRLPRPRPRPTWGPRP | 0.317
20 | RRIRHRPPRLPRPRPRPALDPRP | -0.103
21 | RRIRNRPPRLPRPRPRPDCCPRP | 0.00539
22 | RRIRNRPPRLPRPRPRPNMAPRP | -0.214
23 | RRIRTRPPRLPRPRPRPFDHPRP | -0.301
24 | RRIRSRPPRLPRPRPRPWLIPRP | -0.0422
25 | RRIRNRPPRLPRPRPRPEWGPRP | 0.114

Row | Sequence | shrunken log2 fold change
26 | RRIRMRPPRLPRPRPRPTGMPRP | 0.136
27 | RRIRVRPPRLPRPRPRPPPWPRP | 0.758
28 | RRIRLRPPRLPRPRPRPFCMPRP | -0.623
29 | RRIRCRPPRLPRPRPRPMMFPRP | 0.312
30 | RRIRRRPPRLPRPRPRPRKMPRP | 0.163
31 | RRIRERPPRLPRPRPRPDMPPRP | -0.447
32 | RRIRTRPPRLPRPRPRPHEVPRP | -0.00804
33 | RRIRKRPPRLPRPRPRPGYGPRP | 0.13
34 | RRIRTRPPRLPRPRPRPMAGPRP | -0.109
35 | RRIRERPPRLPRPRPRPESIPRP | 0.089
36 | RRIRVRPPRLPRPRPRPYWAPRP | -0.0239
37 | RRIRIRPPRLPRPRPRPVQDPRP | -1.09
38 | RRIRHRPPRLPRPRPRPSSYPRP | -0.649
39 | RRIRVRPPRLPRPRPRPALLPRP | -0.211
40 | RRIRFRPPRLPRPRPRPYNWPRP | -0.0539
41 | RRIRIRPPRLPRPRPRPEDNPRP | -0.138
42 | RRIRGRPPRLPRPRPRPCTVPRP | 0.032
43 | RRIRYRPPRLPRPRPRPYCNPRP | -0.515
44 | RRIRTRPPRLPRPRPRPNYYPRP | -0.66
45 | RRIRARPPRLPRPRPRPMMCPRP | 0.544
46 | RRIRKRPPRLPRPRPRPDVNPRP | 0.139
47 | RRIRSRPPRLPRPRPRPFFCPRP | -0.11
48 | RRIRYRPPRLPRPRPRPQREPRP | -0.00996
49 | RRIRARPPRLPRPRPRPLFRPRP | 0.881
50 | RRIRARPPRLPRPRPRPVVWPRP | 0.687

Row | Sequence | shrunken log2 fold change
51 | RRIRGRPPRLPRPRPRPQLYPRP | 0.415
52 | RRIRMRPPRLPRPRPRPKPKPRP | 0.476
53 | RRIRRRPPRLPRPRPRPCSGPRP | -0.0988
54 | RRIRQRPPRLPRPRPRPTFFPRP | -0.0813
55 | RRIRARPPRLPRPRPRPTNMPRP | -0.275
56 | RRIRVRPPRLPRPRPRPFKLPRP | -0.277
57 | RRIRPRPPRLPRPRPRPEDDPRP | 0.413
58 | RRIRPRPPRLPRPRPRPWPRPRP | 0.766
59 | RRIRLRPPRLPRPRPRPSEKPRP | -0.0219
60 | RRIRVRPPRLPRPRPRPMIHPRP | -0.465
61 | RRIRSRPPRLPRPRPRPNGSPRP | -0.21
62 | RRIRCRPPRLPRPRPRPMPIPRP | -0.197
63 | RRIRPRPPRLPRPRPRPSGHPRP | -0.395
64 | RRIRVRPPRLPRPRPRPEERPRP | -0.194
65 | RRIRHRPPRLPRPRPRPHVTPRP | -0.373
66 | RRIRERPPRLPRPRPRPQDTPRP | 2.38
67 | RRIRLRPPRLPRPRPRPRTSPRP | 0.288
68 | RRIRSRPPRLPRPRPRPPRTPRP | 0.619
69 | RRIRNRPPRLPRPRPRPQVVPRP | 0.0145
70 | RRIRNRPPRLPRPRPRPKETPRP | -0.0238
71 | RRIRSRPPRLPRPRPRPHVTPRP | -0.232
72 | RRIRERPPRLPRPRPRPVRRPRP | -0.172
73 | RRIRLRPPRLPRPRPRPVPLPRP | -0.174
74 | RRIRGRPPRLPRPRPRPNHRPRP | 0.00454
75 | RRIRIRPPRLPRPRPRPITQPRP | -0.186
